We go through 4 molecules from patent US20260191907A1 (INSTITUT CURIE, published 2026).

For experiment [1], the target named is T1, FGFR4 expressed on the surface of RMS cells (Rh4-FR4 wt, Rh30) (human, UniProt P22455 22-802).
T1 construct: Endogenous FGFR4 of the rhabdomyosarcoma cell lines; The whole entry includes the signal peptide; also called cell-surface FGFR4; Rh4-FR4 wt cells
Put plainly: flow cytometry of DiR fluorescence, liposomes at 0.5 mM lipid on Rh4-FR4 wt cells; reference L-mCh. The method, then:
(§1) Samples were analyzed after two washes by flow cytometry on a MACSQuant® cytometer (Miltenyi) and results were analyzed with FlowJo™ software (BD Biosciences, France). Phages displaying anti-mCherry nanobodies were used as negative control²⁴ and as positive control we used an anti-FGFR4 antibody (BT53, kindly provided by J. Khan lab, NCI, Bethesda, MD). For binding test of recombinant nanobodies, cells were detached with Accutase® (Stemcell Technologies) and washed with PBS. All following steps were performed on ice: 4×10⁵ cells were incubated with nanobody concentrations of 30 μg/ml for 1 h, washed once with PBS and incubated for an additional 30 min with anti His-tag FITC labeled antibody (LS-C57341, LSBioscience, diluted 1:10). The cells were washed once more with PBS and analyzed. Targeting liposomes were added at 0.5 mM final lipid concentration to cells in 96-well plates and incubated for 2 h at 37° C. and 5% CO₂. The cells were washed twice with PBS and detached with Accutase®.
(§2) We next wanted to test if nanobodies on the liposomal surface can still bind to FGFR4 expressing RMS cells. Rh4-FR4 wt and Rh4-FR4ko cells were incubated for 2 h with FGFR4-targeted liposomes or mCherry-targeted control liposomes under normal cell culture conditions. DiR fluorescence was subsequently analyzed by flow cytometry (FIG. 5).
Background: In flow cytometry, cells or beads pass a laser one at a time.

Experiment [2] addresses T1, FGFR4 expressed on the surface of RMS …. The experiment in a line: flow cytometry of DiR fluorescence, liposomes at 0.5 mM lipid on Rh4-FR4 wt cells, 2 h at 37 °C. The method, then: as §1, with “Binding validation of selected phages, recombinant nanobodies and decorated liposomes was performed on Rh4-FR4 wt and Rh4-FR4ko cells. Specificity of selected phage clones binding to FGFR4 was determined by flow cytometry in 96-well plates (Becton Dickinson). Cell surface staining of Rh4-FR4 wt or Rh4-FR4ko cells was performed on ice in PBS supplemented with 1% FBS. 80 μL phages+20 μL PBS/1% milk were incubated on 1×10⁵ cells for 1 h on ice. […] Samples” for “Samples”
as §2

T1 sequence (P22455 22-802 limits assumed): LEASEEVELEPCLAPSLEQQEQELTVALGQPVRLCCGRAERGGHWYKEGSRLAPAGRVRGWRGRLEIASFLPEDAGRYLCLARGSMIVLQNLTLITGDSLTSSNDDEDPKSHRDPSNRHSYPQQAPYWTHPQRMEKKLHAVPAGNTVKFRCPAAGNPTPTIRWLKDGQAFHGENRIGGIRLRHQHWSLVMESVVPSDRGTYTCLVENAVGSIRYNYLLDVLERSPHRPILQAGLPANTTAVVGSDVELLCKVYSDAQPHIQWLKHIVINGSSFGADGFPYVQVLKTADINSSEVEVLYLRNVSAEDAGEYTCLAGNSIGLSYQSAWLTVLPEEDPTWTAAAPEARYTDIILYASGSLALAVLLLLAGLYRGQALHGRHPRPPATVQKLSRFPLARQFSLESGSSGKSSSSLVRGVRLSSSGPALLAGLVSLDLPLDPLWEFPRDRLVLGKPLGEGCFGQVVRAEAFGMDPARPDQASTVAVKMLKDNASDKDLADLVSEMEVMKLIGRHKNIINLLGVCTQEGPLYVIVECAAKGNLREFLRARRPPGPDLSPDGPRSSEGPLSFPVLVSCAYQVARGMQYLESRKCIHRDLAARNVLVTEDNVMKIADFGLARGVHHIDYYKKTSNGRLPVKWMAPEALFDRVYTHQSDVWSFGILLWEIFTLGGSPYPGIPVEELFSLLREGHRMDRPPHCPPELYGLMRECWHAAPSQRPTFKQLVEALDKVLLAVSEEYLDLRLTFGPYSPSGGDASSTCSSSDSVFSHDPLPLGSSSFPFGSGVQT

B1: L-B5, VCR-loaded fluorescent liposomes decorated with nanobody B5 (other)
VHH: EVQLQASGGGFVQPGGSLRLSCAASGRTSWLTTMGWFRQAPGKEREFVSAISSFSSKQGYYADSVKGRFTISRDNSKNTVYLQMNSLRAEDTATYYCAYASYPRHQGNGRWKDFVEYWGQGTQVTVSS
modifications: C-terminal cysteine coupled to DSPE-PEG-maleimide on the liposomal surface
notes: Liposome as for L-A8; also called FGFR4-targeted liposomes; not shown: C-terminal Myc/6xHis-tag and an additional cysteine
For the molecule B1, in experiment [1], the “fold increase of MFI over L-mCh” value came out at 34 fold. This molecule also registered an MFI in experiment [2] of 1700 MFI.

B2: L-F8, VCR-loaded fluorescent liposomes decorated with nanobody F8 (other)
VHH: EVQLVESGGGLVQPGGSLRLSCAASGTGYALDDMGWVRQAPGKGLEWVSAISDDESMADYYADSVKGRFTISRDNSKNTVYLQMNSLRAEDTAVYYCASYKEYKYQSGHHYFAYRGQGTLVTVSS
modifications: C-terminal cysteine coupled to DSPE-PEG-maleimide on the liposomal surface
notes: as for B1
On to B2, for which the “fold increase of MFI over L-mCh” value in experiment [1] stood at 28 fold. In experiment [2], the MFI came out at 1400 MFI.

B3: L-B1, VCR-loaded fluorescent liposomes decorated with nanobody B1 (other)
VHH: EVQLQASGGGFVQPGGSLRLSCAASGYTSRSSAMGWFRQAPGKEREFVSAISDLTGYPYYYADSVKGRFTISRDNSKNTVYLQMNSLRAEDTATYYCAAYQDDKWTYGSQHGKYWGQGTQVTVSS
modifications: C-terminal cysteine coupled to DSPE-PEG-maleimide on the liposomal surface
notes: as for B1
Take B3: the “fold increase of MFI over L-mCh” value in experiment [1] worked out at 12 fold. Besides, the MFI in experiment [2] was 600 MFI.

B4: L-A8, VCR-loaded fluorescent liposomes decorated with nanobody A8 (other)
VHH: EVQLQASGGGFVQPGGSLRLSCAASGRTYSRDTMGWFRQAPGKEREFVSAISSRHSHTTYYADSVKGRFTISRDNSKNTVYLQMNSLRAEDTATYYCAEWDVFDMHYALPPMWYWGQGTQVTVSS
modifications: C-terminal cysteine coupled to DSPE-PEG-maleimide on the liposomal surface
notes: Liposome of egg sphingomyelin, cholesterol, PEG-ceramide, DSPE-PEG-maleimide and DiR, loaded with vincristine; also called FGFR4-targeted liposomes; not shown: C-terminal Myc/6xHis-tag and an additional cysteine
As for B4, in experiment [1], the “fold increase of MFI over L-mCh” value amounted to 6 fold. In experiment [2], the MFI stood at 300 MFI.
